Results taken from paper PMC11124806, “Optimization of Surface Functionalizations for Ring Resonator-Based Biosensors”.

Key:
thrombin (Thr) = thrombin (Thr) (UniProt P00734;P00734 328-363;364-622); assay: microring resonator (label-free photonic biosensor); 100 nM thrombin, 0.05% Tween 20, MCH-passivated chip; about 71% retained after buffer wash; CRP: 20 mM Hepes, 120 mM NaCl, 5 mM KCl, 1 mM CaCl2, 1 mM MgCl2, pH 7.3, room temperature, 30 min; thrombin: buffer with 0.05% Tween 20 (composition and tempera)
C-reactive protein (CRP) = target: T1, C-reactive protein (CRP) (UniProt P02741 19-224); assay: surface sandwich chemiluminescence (anti-CRP antibody-HRP); 100 nM CRP, 1 mM Ca2+, 1 mM Mg2+; still binds after two months storage at 4 C; CRP: 20 mM Hepes, 120 mM NaCl, 5 mM KCl, 1 mM CaCl2, 1 mM MgCl2, pH 7.3, room temperature, 30 min; thrombin: buffer with 0.05% Tween 20 (composition and temperature not in material); conditions: protein: commercial; chain copies: 5; label: 3' TAMRA on some amounts
T1 sequence: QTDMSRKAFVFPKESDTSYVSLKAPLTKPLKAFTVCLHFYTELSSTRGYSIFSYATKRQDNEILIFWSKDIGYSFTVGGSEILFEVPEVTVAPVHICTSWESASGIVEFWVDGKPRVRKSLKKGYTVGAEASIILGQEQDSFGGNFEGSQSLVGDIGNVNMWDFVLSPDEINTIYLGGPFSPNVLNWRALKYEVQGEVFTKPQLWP

AGTCCGTGGTAGGGCAGGTTGGGGTGACT (structured_DNA, 5' thiol (5ThioMC6-D, reduced), immobilized on mercaptosilane) [a-Thr]: binds (thrombin (Thr)).

CGAAGGGGATTCGAGGGGTGATTGCGTGCTCCATTTGGTG (ssDNA, 5' thiol (5ThioMC6-D, reduced), immobilized on mercaptosilane) [a-CRP]: binds (C-reactive protein (CRP)).
